Common to all, as to experiment: anti-FLAG co-IP LC-MS, exp 3, +IFNg +Dox
In assay [1] the target is T1, Proteasome subunit alpha type (Homo sapiens).
T1 construct: also called PSMA6

In assay [2] the target is T2, Immunoglobulin kappa variable 2-40 (Homo sapiens).
T2 construct: also called IGKV2-40

In assay [3] the target is ATP-dependent RNA helicase DDX3X (Homo sapiens, UniProt O00571 2-662).
The target of assay [4] is T3, DNA-dependent protein kinase catalytic subunit (Homo sapiens, UniProt P78527 1-4128).
T3 construct: also called PRKDC

Assay [5] addresses T4, Nuclease-sensitive element-binding protein 1 (Fragment) (Homo sapiens, UniProt P67809 2-324).
T4 construct: also called YBX1

Assay [6] deals with T5, Heterogeneous nuclear ribonucleoprotein M (Homo sapiens, UniProt P52272 2-730).
T5 construct: also called HNRNPM
T5 sequence (looked up): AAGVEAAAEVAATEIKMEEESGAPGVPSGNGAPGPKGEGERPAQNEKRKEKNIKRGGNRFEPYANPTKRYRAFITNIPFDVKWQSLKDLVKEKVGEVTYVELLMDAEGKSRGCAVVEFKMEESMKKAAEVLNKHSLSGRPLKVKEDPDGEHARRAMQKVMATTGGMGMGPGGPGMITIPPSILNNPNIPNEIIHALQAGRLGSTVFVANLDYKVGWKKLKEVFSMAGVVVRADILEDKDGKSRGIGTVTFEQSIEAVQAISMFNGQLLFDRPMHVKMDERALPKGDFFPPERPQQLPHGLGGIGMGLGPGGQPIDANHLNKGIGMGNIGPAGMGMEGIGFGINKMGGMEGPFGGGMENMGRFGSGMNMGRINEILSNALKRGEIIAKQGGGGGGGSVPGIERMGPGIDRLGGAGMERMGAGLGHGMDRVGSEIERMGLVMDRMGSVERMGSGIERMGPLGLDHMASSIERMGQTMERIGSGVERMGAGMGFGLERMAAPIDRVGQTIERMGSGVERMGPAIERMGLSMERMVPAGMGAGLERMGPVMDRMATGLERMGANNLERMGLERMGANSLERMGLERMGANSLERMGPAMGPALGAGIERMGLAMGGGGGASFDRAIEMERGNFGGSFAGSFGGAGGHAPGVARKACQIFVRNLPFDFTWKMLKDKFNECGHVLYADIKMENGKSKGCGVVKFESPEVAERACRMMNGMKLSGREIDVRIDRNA

The target in assay [7] is T6, Nucleolin (Homo sapiens, UniProt P19338 2-710).
T6 construct: also called NCL

Assay [8] has as its target T7, Cyclin-dependent kinase 4 (Homo sapiens, UniProt P11802 2-303).
T7 construct: also called CDK4

In assay [9] the target is T8, Signal transducer and activator of transcription 1-alpha/beta (Homo sapiens, UniProt P42224 2-750).
T8 construct: also called STAT1
T8 sequence (looked up): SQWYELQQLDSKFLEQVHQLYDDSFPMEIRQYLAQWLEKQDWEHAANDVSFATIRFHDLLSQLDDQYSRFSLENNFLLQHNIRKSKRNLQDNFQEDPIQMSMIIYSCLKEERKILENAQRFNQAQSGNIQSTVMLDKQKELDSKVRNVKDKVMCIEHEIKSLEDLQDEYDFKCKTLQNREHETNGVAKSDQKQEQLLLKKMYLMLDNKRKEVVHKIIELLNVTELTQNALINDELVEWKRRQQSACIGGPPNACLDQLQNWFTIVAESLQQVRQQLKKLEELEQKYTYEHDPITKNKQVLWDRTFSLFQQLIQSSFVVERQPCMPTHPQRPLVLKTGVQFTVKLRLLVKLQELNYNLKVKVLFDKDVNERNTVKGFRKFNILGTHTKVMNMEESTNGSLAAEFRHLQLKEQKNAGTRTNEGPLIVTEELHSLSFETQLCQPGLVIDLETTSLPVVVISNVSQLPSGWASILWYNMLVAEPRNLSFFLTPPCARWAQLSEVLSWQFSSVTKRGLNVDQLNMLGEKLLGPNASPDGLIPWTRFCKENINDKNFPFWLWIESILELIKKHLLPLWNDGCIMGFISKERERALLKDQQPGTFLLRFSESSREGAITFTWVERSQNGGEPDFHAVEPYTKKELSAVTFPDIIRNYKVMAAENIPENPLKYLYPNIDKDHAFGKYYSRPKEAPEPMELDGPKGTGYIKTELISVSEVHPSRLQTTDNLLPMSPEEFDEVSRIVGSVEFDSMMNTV

Assay [10] concerns the target T9, Heterogeneous nuclear ribonucleoprotein U (Homo sapiens, UniProt Q00839 2-825).
T9 construct: also called HNRNPU; HNRPU

Assay [11] addresses T10, Uncharacterized protein (Fragment) (Homo sapiens).
T10 construct: also called NA (Homology to TAP2)

The target in assay [12] is T11, cDNA FLJ56329, highly similar to Myosin light polypeptide 6 (Homo sapiens).
T11 construct: also called MYL6

T6 sequence (P19338 2-710 limits assumed): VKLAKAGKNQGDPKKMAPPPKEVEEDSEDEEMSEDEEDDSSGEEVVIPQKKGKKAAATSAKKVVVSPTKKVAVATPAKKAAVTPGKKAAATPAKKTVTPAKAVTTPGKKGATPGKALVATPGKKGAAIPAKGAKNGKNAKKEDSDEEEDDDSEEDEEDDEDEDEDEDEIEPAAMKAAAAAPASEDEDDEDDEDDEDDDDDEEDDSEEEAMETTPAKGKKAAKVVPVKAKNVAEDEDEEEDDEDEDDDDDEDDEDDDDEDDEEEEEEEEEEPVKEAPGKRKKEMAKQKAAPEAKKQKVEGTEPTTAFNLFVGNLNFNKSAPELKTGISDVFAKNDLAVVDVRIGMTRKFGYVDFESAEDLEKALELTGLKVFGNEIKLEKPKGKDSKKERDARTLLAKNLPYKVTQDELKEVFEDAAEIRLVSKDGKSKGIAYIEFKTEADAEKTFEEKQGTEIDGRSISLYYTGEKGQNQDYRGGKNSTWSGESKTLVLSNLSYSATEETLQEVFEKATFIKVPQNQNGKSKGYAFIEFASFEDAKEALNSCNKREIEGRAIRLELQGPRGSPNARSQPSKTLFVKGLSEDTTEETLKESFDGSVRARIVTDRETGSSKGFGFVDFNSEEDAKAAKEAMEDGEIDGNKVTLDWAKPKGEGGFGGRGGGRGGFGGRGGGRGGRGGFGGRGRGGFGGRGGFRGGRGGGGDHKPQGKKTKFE
T3 sequence (P78527 whole entry): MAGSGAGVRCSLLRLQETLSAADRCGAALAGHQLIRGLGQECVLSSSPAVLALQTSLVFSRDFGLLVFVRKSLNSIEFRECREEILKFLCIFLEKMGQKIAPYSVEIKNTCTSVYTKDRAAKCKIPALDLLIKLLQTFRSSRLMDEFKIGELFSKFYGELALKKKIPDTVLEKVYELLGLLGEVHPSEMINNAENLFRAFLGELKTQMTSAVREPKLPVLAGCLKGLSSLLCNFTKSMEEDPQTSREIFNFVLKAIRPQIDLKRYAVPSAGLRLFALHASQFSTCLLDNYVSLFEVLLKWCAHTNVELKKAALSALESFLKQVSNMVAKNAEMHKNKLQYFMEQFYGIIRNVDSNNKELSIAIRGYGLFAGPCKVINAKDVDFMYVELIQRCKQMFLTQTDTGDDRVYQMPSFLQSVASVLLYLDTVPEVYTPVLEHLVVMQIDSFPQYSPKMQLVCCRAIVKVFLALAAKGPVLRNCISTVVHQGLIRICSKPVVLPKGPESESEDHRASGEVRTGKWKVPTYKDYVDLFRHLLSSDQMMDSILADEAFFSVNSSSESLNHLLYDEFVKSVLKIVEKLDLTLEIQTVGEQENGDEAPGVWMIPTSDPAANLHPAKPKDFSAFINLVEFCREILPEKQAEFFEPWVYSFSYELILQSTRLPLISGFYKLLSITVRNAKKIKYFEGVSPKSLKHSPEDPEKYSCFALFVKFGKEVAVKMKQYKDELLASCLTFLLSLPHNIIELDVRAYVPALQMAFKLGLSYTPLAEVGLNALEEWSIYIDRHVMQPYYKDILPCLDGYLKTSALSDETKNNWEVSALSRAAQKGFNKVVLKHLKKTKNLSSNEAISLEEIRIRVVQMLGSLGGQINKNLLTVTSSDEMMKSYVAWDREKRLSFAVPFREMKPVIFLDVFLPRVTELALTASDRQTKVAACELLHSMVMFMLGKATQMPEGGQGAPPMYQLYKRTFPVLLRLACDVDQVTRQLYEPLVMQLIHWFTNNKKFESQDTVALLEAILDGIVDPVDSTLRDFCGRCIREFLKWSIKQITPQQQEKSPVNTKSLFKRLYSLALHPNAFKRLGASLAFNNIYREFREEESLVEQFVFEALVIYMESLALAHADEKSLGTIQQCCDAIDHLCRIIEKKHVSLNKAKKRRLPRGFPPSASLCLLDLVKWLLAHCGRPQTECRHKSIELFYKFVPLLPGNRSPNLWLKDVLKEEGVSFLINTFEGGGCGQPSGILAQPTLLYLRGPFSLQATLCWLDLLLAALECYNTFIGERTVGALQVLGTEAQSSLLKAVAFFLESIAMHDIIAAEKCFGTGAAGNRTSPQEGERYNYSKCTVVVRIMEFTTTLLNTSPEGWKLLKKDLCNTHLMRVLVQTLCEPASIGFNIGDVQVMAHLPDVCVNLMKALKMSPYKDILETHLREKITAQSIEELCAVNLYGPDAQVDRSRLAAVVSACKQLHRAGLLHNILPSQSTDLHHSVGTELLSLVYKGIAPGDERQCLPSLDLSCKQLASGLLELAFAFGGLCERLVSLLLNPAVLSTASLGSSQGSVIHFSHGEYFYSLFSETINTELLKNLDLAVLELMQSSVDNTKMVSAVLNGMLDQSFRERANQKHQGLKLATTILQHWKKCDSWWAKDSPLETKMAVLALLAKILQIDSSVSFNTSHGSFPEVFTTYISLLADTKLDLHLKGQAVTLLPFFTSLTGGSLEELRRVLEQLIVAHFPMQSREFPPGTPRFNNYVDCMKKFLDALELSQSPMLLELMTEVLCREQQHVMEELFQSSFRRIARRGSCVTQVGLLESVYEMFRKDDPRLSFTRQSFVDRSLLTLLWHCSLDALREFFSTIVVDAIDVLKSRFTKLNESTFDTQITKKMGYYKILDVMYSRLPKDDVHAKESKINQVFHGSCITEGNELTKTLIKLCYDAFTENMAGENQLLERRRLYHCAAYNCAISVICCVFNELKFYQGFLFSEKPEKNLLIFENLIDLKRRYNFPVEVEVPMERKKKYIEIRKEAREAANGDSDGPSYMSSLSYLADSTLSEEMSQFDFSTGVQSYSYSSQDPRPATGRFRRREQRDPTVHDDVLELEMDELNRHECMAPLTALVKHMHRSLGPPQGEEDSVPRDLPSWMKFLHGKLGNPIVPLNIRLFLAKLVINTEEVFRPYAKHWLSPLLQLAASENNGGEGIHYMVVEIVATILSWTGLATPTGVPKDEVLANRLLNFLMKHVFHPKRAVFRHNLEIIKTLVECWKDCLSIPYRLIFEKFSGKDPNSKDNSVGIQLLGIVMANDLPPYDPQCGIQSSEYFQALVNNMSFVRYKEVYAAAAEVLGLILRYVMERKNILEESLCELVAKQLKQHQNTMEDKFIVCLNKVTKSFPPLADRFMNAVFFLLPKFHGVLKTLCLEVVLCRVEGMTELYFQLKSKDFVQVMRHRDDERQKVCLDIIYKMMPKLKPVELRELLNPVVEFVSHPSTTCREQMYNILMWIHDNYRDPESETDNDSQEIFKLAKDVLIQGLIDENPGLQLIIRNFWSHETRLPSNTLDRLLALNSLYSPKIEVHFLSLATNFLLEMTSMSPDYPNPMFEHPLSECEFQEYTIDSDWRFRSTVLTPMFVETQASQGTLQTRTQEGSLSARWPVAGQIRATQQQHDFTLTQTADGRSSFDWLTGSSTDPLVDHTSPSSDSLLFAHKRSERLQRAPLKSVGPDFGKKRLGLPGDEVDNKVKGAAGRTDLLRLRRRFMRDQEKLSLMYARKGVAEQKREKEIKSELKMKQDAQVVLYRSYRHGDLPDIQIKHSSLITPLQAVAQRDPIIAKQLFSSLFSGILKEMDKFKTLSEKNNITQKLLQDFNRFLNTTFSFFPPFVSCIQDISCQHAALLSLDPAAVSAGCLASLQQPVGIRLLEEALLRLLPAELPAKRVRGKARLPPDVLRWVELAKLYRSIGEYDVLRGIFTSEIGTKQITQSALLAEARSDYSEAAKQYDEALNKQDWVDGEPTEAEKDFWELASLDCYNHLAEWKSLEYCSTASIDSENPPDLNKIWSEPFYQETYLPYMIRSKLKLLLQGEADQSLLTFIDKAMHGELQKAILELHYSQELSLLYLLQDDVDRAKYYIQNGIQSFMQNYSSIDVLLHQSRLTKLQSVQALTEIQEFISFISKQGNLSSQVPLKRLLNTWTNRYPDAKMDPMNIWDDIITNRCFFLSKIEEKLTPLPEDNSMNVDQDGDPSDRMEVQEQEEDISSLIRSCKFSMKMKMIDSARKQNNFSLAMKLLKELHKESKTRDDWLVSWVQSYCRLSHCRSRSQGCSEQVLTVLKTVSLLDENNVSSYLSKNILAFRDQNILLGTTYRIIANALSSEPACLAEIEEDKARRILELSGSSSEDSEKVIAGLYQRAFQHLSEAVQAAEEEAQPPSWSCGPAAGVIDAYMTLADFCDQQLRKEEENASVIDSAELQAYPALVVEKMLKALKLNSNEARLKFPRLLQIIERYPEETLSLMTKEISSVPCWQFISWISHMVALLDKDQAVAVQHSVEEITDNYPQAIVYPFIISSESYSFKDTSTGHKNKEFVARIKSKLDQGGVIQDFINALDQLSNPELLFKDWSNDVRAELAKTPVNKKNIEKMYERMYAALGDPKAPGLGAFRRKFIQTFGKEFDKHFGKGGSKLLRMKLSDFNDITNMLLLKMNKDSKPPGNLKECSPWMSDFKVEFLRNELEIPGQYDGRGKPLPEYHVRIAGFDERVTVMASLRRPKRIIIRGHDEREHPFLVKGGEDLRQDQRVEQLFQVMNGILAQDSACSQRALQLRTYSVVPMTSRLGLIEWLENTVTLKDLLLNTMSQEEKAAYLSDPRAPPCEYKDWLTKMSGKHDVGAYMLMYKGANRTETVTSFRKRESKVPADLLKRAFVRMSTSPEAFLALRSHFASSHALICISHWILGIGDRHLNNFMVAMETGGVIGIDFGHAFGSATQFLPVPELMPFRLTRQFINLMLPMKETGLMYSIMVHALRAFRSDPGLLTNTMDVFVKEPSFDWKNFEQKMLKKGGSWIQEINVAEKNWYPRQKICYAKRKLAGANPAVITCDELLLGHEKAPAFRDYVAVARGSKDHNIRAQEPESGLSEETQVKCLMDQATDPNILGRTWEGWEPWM
T7 sequence (P11802 2-303 limits assumed): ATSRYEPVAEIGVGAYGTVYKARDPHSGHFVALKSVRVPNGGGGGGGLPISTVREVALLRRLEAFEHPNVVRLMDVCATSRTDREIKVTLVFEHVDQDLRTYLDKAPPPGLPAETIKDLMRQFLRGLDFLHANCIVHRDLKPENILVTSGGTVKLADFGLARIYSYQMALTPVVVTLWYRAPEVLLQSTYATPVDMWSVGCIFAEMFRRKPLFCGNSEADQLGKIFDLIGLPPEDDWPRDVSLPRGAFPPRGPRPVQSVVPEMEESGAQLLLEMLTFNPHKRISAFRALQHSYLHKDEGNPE

B1: i3XFLAG-NLS-CTDaa154-424 (other)
chain: MDYKDHDGDYKDHDIDYKDDDDKPPKRMRREPKKKRKVGRAPAQAGGLCSAAPGGGHPAPSWVAFAHTGAWGTGLPAPHVPCAPGALPQGAFVSQAARAAPALQPSQAAPAEGISQPAPARGDFAYAAPAPPDGALSHPQAPRWPPHPGKSREDRDPQRDGLPGPCAVAQPGPAQAGPQGQGVLAPPTSQGSPWWGWGRGPQVAGAAWEPQAGAAPPPQPAPPDASASARQGQMQGIPAPSQALQEPAPWSALPCGLLLDELLASPEFLQQAQPLLETEAPGELEASEEAASLEAPLSEEEYRALLEEL
notes: Doxycycline-induced in MB135 cells for co-IP; also called longCTD; iDUX4-CTD
In the case of B1, the PSMs in [1] was 1 PSMs; in assay [2] it was 2 PSMs; in assay [3] it was 37 PSMs; in [4], 18 PSMs; in [5] it was 7 PSMs; in assay [6], 21 PSMs. The PSMs in assay [7] was 4 PSMs; in assay [8], 1 PSMs; in assay [9], 3 PSMs; in [10] it was 9 PSMs; in [11] it was 1 PSMs; in [12], 4 PSMs.

Values taken from patent US20250339531A1 (FRED HUTCHINSON CANCER CENTER, published 2025).
